Experimental findings from patent US20090104170A1 are described below.

This experiment concerns the target MHC class 1 molecules on the target cells. Nature of the experiment: cell-based or functional assay.

As to “monoclonal antibody W6/32 (anti-pan class 1 MHC monoclonal antibody; DAKO)”, the percent lysis of Volle EBV-LCLs by SKEM NK lines 2, 6 and 7 at a 10:1 E/T ratio after preculture of the targets with W6/32 is over 80%.
